Substitutions are numbered along the chain they refer to. Names and notes keep the numbering of the source.
B1: sHAI-1B(K401A) (other, human, UniProt O43278 36-465, looked up)
chain: GPPPAPPGLPAGADCLNSFTAGVPGFVLDTNASVSNGATFLESPTVRRGWDCVRACCTTQNCNLALVELQPDRGEDAIAACFLINCLYEQNFVCKFAPREGFINYLTREVYRSYRQLRTQGFGGSGIPKAWAGIDLKVQPQEPLVLKDVENTDWRLLRGDTDVRVERKDPNQVELWGLKEGTYLFQLTVTSSDHPEDTANVTVTVLSTKQTEDYCLASNKVGRCRGSFPRWYYDPTEQICKSFVYGGCLGNKNNYLREEECILACRGVQGGPLRGSSGAQATFPQGPSMERRHPVCSGTCQPTQFRCSNGCCIDSFLECDDTPNCPDASDEAACEKYTSGFDELQRIHFPSDKGHCVDLPDTGLCAESIPRWYYNPFSEHCARFTYGGCYGNKNNFEEEQQCLESCRGISKKDVFGLRREIPIPSTGSVE
B2: prostasin (recombinant human, soluble, active two-chain form purified from conditioned medium of CHO cells transfected with full-length prostasin) (enzyme)
chain: not shown
notes: also called purified prostasin; soluble prostasin
B3: sHAI-1B(R260A) (other, human, UniProt O43278 36-465, looked up)
chain: B1 chain with R225A, A366K

How the values were obtained:
[1] = target: B2; test: cell-based or functional assay
[2] = target: B1; test: prostasin incubated with 20 nM mutant sHAI-1B, immunoblot (FIG. 2B)
Description: (§1) FIG. 2. […] Prostasin of indicated concentration was incubated with 20 nM wildtype sHAI-1B (A) or mutant sHAI-1B (B) at 37° C. for 0.5 or 2 h. The reactions were stopped by addition of SDS sample buffer with DTT. 30 μl of each sample was boiled or not boiled (as indicated) followed by immunoblotting analysis using anti-HAI-1B polyclonal antibody.
(§2) Prostasin was incubated with sHAI-1B comprising the entire extracellular domain of HAI-1B (Kirchhofer, Peek et al. 2003) at different molar ratios (FIG.2A).

[3] = target: aprotinin (UniProt P00974 36-93); test: affinity chromatography of prostasin on immobilised aprotinin
[4] = target: B3; test: incubation at 37 C, SDS-PAGE and immunoblot with anti-HAI-1B polyclonal antibody
Description: as §1, §2

[5] = target: B2; test: cell-based or functional assay; remark: listed apart in the source

Row | IC50 (nM), inhibition of prostasin amidolytic activity towards S2765 [1] | binding result [2] | binding result [3] | binding result [4] | fold less potent than wildtype sHAI-1B in the prostasin inhibition assay [5] | inhibitory activity of KD2 relative to KD1 in prostasin enzymatic assays [5] | Binder
1 | 75.3 nM | – | – | – | – | – | B1
2 | – | binds | binds | no binding | – | – | B2
3 | > 1000 nM | – | – | – | ≥ 18 fold | < 6% | B3
